Reference: IntAct's records for PubMed 28712572

The substances below were run against gbrap_human GABARAP (UniProt O95166).
Sequence of gbrap_human GABARAP (O95166 whole entry): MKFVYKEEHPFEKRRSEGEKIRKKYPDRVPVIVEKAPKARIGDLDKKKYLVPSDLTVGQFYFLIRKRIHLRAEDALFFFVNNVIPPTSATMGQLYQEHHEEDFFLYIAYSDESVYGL

| Substance | effect of a mutation on the interaction |
| --- | --- |
| Pericentriolar material 1 protein (Homo sapiens), Q15154 E1960K | decreasing interaction strength |
| Pericentriolar material 1 protein (Homo sapiens), Q15154 E1960L | with no effect |
| Pericentriolar material 1 protein (Homo sapiens), Q15154 E1960M | decreasing interaction strength |
| Pericentriolar material 1 protein (Homo sapiens), Q15154 E1960N | with no effect |
| Pericentriolar material 1 protein (Homo sapiens), Q15154 E1960P | with no effect |
| Pericentriolar material 1 protein (Homo sapiens), Q15154 E1960Q | with no effect |
| Pericentriolar material 1 protein (Homo sapiens), Q15154 E1960R | with no effect |
| Pericentriolar material 1 protein (Homo sapiens), Q15154 E1960S | with no effect |
| Pericentriolar material 1 protein (Homo sapiens), Q15154 E1960T | with no effect |
| Pericentriolar material 1 protein (Homo sapiens), Q15154 E1960V | decreasing interaction strength |
| Pericentriolar material 1 protein (Homo sapiens), Q15154 E1960W | with no effect |
| Pericentriolar material 1 protein (Homo sapiens), Q15154 E1960Y | with no effect |
| Pericentriolar material 1 protein (Homo sapiens), Q15154 E1961A | with no effect |
| Pericentriolar material 1 protein (Homo sapiens), Q15154 E1961C | with no effect |
| Pericentriolar material 1 protein (Homo sapiens), Q15154 E1961D | with no effect |
| Pericentriolar material 1 protein (Homo sapiens), Q15154 E1961F | with no effect |
| Pericentriolar material 1 protein (Homo sapiens), Q15154 E1961G | with no effect |
| Pericentriolar material 1 protein (Homo sapiens), Q15154 E1961H | with no effect |
| Pericentriolar material 1 protein (Homo sapiens), Q15154 E1961I | with no effect |
| Pericentriolar material 1 protein (Homo sapiens), Q15154 E1961K | disrupting interaction strength |
| Pericentriolar material 1 protein (Homo sapiens), Q15154 E1961L | with no effect |

| Substance | effect of a mutation on the interaction |
| --- | --- |
| Pericentriolar material 1 protein (Homo sapiens), Q15154 E1961M | decreasing interaction strength |
| Pericentriolar material 1 protein (Homo sapiens), Q15154 E1961N | with no effect |
| Pericentriolar material 1 protein (Homo sapiens), Q15154 E1961P | decreasing interaction strength |
| Pericentriolar material 1 protein (Homo sapiens), Q15154 E1961Q | with no effect |
| Pericentriolar material 1 protein (Homo sapiens), Q15154 E1961R | decreasing interaction strength |
| Pericentriolar material 1 protein (Homo sapiens), Q15154 E1961S | with no effect |
| Pericentriolar material 1 protein (Homo sapiens), Q15154 E1961T | with no effect |
| Pericentriolar material 1 protein (Homo sapiens), Q15154 E1961V | decreasing interaction strength |
| Pericentriolar material 1 protein (Homo sapiens), Q15154 E1961W | with no effect |
| Pericentriolar material 1 protein (Homo sapiens), Q15154 E1961Y | with no effect |
| Pericentriolar material 1 protein (Homo sapiens), Q15154 E1967A | with no effect |
| Pericentriolar material 1 protein (Homo sapiens), Q15154 E1967C | with no effect |
| Pericentriolar material 1 protein (Homo sapiens), Q15154 E1967D | with no effect |
| Pericentriolar material 1 protein (Homo sapiens), Q15154 E1967F | with no effect |
| Pericentriolar material 1 protein (Homo sapiens), Q15154 E1967G | with no effect |
| Pericentriolar material 1 protein (Homo sapiens), Q15154 E1967H | with no effect |
| Pericentriolar material 1 protein (Homo sapiens), Q15154 E1967I | with no effect |
| Pericentriolar material 1 protein (Homo sapiens), Q15154 E1967K | with no effect |
| Pericentriolar material 1 protein (Homo sapiens), Q15154 E1967L | with no effect |
| Pericentriolar material 1 protein (Homo sapiens), Q15154 E1967M | with no effect |
| Pericentriolar material 1 protein (Homo sapiens), Q15154 E1967N | with no effect |

| Substance | effect of a mutation on the interaction |
| --- | --- |
| Pericentriolar material 1 protein (Homo sapiens), Q15154 E1967P | with no effect |
| Pericentriolar material 1 protein (Homo sapiens), Q15154 E1967Q | with no effect |
| Pericentriolar material 1 protein (Homo sapiens), Q15154 E1967R | with no effect |
| Pericentriolar material 1 protein (Homo sapiens), Q15154 E1967S | with no effect |
| Pericentriolar material 1 protein (Homo sapiens), Q15154 E1967T | with no effect |
| Pericentriolar material 1 protein (Homo sapiens), Q15154 E1967V | with no effect |
| Pericentriolar material 1 protein (Homo sapiens), Q15154 E1967W | with no effect |
| Pericentriolar material 1 protein (Homo sapiens), Q15154 E1967Y | with no effect |
| Pericentriolar material 1 protein (Homo sapiens), Q15154 F1963A | disrupting interaction strength |
| Pericentriolar material 1 protein (Homo sapiens), Q15154 F1963C | disrupting interaction strength |
| Pericentriolar material 1 protein (Homo sapiens), Q15154 F1963D | disrupting interaction strength |
| Pericentriolar material 1 protein (Homo sapiens), Q15154 F1963E | disrupting interaction strength |
| Pericentriolar material 1 protein (Homo sapiens), Q15154 F1963G | disrupting interaction strength |
| Pericentriolar material 1 protein (Homo sapiens), Q15154 F1963H | disrupting interaction strength |
| Pericentriolar material 1 protein (Homo sapiens), Q15154 F1963I | disrupting interaction strength |
| Pericentriolar material 1 protein (Homo sapiens), Q15154 F1963K | disrupting interaction strength |
| Pericentriolar material 1 protein (Homo sapiens), Q15154 F1963L | disrupting interaction strength |
| Pericentriolar material 1 protein (Homo sapiens), Q15154 F1963M | disrupting interaction strength |
| Pericentriolar material 1 protein (Homo sapiens), Q15154 F1963N | disrupting interaction strength |
| Pericentriolar material 1 protein (Homo sapiens), Q15154 F1963P | disrupting interaction strength |
| Pericentriolar material 1 protein (Homo sapiens), Q15154 F1963Q | disrupting interaction strength |
